Assay [1] addresses T1, ITGA6-Fc.
T1 sequence (P23229 whole entry, species assumed, looked up): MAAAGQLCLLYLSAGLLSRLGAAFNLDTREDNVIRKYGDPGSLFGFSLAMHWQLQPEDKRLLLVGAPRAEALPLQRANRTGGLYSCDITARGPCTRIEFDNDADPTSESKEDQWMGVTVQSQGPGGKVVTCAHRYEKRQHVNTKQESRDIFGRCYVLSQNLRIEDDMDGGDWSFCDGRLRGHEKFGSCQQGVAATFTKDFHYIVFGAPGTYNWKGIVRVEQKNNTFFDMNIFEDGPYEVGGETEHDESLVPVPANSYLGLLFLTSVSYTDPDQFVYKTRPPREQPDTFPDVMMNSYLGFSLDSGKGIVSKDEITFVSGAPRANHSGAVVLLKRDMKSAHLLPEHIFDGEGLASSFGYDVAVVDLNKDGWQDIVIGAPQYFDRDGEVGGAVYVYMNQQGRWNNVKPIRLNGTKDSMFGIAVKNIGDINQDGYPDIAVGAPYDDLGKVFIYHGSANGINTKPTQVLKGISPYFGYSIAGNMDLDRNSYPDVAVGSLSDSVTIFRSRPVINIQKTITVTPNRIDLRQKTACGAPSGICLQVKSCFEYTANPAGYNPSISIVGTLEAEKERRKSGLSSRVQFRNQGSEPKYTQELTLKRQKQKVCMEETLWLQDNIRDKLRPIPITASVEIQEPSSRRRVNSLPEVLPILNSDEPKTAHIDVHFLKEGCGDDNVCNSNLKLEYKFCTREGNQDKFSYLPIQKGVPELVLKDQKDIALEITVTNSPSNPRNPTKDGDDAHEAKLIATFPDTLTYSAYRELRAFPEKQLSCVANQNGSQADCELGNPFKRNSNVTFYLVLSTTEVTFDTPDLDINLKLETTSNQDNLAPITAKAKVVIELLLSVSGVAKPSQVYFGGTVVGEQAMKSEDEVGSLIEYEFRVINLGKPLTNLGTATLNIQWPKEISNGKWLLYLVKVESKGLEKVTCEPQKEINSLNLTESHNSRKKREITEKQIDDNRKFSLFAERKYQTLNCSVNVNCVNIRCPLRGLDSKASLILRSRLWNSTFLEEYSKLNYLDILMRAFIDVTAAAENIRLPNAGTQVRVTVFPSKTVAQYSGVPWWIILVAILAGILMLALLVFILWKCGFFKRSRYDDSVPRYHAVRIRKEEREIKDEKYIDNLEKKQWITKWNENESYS
Kind of assay: ELISA (control row).

The target of assay [2] is T1, ITGA6-Fc. Kind of assay: ELISA, 1 ug/ml.
Assay [3] has as its target human PD-1 (NM_005018.2) over-expressed on cells (human) (UniProt Q15116). Kind of assay: flow cytometry, 18 nM, panel 45D6.
For assay [4] the target is unchanged. Kind of assay: flow cytometry, 18 nM, panel 49A2.

Sequence of human PD-1 (NM_005018.2) over-expressed on cells (human) (Q15116 25-288): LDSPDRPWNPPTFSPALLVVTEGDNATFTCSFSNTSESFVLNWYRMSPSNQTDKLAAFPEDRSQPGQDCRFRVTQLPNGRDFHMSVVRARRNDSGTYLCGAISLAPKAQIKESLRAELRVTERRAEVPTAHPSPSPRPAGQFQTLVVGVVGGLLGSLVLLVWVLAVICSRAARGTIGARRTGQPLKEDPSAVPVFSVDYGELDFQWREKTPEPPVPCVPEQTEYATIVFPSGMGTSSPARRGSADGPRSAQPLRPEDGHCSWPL
Sequence of Pembrolizumab (antibody) (VH): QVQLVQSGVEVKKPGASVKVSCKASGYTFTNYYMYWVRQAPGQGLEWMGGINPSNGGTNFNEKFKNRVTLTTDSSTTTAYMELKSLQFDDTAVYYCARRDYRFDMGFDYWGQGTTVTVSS
Sequence of Pembrolizumab (antibody) (VL): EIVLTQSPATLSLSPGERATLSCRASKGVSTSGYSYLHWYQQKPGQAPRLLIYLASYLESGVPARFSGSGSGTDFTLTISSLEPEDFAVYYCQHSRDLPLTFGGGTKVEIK

For Nivolumab (antibody), the OD490 in the assay with ITGA6-Fc [1] and with ITGA6-Fc [2] was 0.3 throughout.

With IgG (antibody), the Geometric Mean in assay [3] and in assay [4] was 50 in each case.

For the substance Pembrolizumab (antibody), the OD490 with ITGA6-Fc [1] and with ITGA6-Fc [2] was 0.1 throughout.

Source of the values: patent US20190248900A1.
